# Substitutions are numbered along the chain they refer to. Names may count otherwise.
# B1: XPA23 light chain P95S (Fab, V domains shown)
# VH: EVQLLESGGGLVQPGGSLRLSCAASGFTFSKYFMFWVRQAPGKGLEWVSVISPSGGMTRYADSVKGRFTISRDNSKNTLYLQMNSLRAEDTAVYYCARVGYGGNSDYWGQGTLVTVSS
# VL: DIQMTQSPSSVSASVGDRLTIICRASQDINRWLAWYQQTPGNAPKLLIHSATSLQSGVPSRFSGSGSGTDFTLTINSLQPEDFATYYCQQADSFSLTFGGGTKVEIK
# B2: XPA23 light chain Q27V (Fab, V domains shown)
# VH: B1 VH
# VL: B1 VL with Q27V, S95P
# B3: XPA23 light chain Q27L (Fab, V domains shown)
# VH: B1 VH
# VL: B1 VL with Q27L, S95P
# B4: XPA23 light chain Q27S (Fab, V domains shown)
# VH: B1 VH
# VL: B1 VL with Q27S, S95P
# B5: XPA23 light chain Q27G (Fab, V domains shown)
# VH: B1 VH
# VL: B1 VL with Q27G, S95P
# B6: XPA23 light chain Q27T (Fab, V domains shown)
# VH: B1 VH
# VL: B1 VL with Q27T, S95P
# B7: XPA23 light chain Q27N (Fab, V domains shown)
# VH: B1 VH
# VL: B1 VL with Q27N, S95P
# B8: XPA23 light chain Q27F (Fab, V domains shown)
# VH: B1 VH
# VL: B1 VL with Q27F, S95P
# B9: XPA23 light chain P95W (Fab, V domains shown)
# VH: B1 VH
# VL: B1 VL with S95W
# B10: XPA23 light chain R31F (Fab, V domains shown)
# VH: B1 VH
# VL: B1 VL with R31F, S95P
# B11: XPA23 light chain Q27E (Fab, V domains shown)
# VH: B1 VH
# VL: B1 VL with Q27E, S95P
# B12: XPA23 light chain Q27H (Fab, V domains shown)
# VH: B1 VH
# VL: B1 VL with Q27H, S95P
# B13: XPA23 light chain R31D (Fab, V domains shown)
# VH: B1 VH
# VL: B1 VL with R31D, S95P
# B14: XPA23 light chain Q27R (Fab, V domains shown)
# VH: B1 VH
# VL: B1 VL with Q27R, S95P
# B15: XPA23 light chain Q27W (Fab, V domains shown)
# VH: B1 VH
# VL: B1 VL with Q27W, S95P
# B16: XPA23 light chain Q27K (Fab, V domains shown)
# VH: B1 VH
# VL: B1 VL with Q27K, S95P
# B17: XPA23 light chain R31S (Fab, V domains shown)
# VH: B1 VH
# VL: B1 VL with R31S, S95P
# B18: XPA23 light chain R31A (Fab, V domains shown)
# VH: B1 VH
# VL: B1 VL with R31A, S95P
# B19: XPA23 light chain Q27P (Fab, V domains shown)
# VH: B1 VH
# VL: B1 VL with Q27P, S95P
# B20: XPA23 light chain R31P (Fab, V domains shown)
# VH: B1 VH
# VL: B1 VL with R31P, S95P
# B21: XPA23 light chain R31K (Fab, V domains shown)
# VH: B1 VH
# VL: B1 VL with R31K, S95P
# B22: XPA23 light chain R31I (Fab, V domains shown)
# VH: B1 VH
# VL: B1 VL with R31I, S95P
# B23: XPA23 light chain R31E (Fab, V domains shown)
# VH: B1 VH
# VL: B1 VL with R31E, S95P
# B24: XPA23 light chain Q27A (Fab, V domains shown)
# VH: B1 VH
# VL: B1 VL with Q27A, S95P
# B25: XPA23 light chain Q27D (Fab, V domains shown)
# VH: B1 VH
# VL: B1 VL with Q27D, S95P
# B26: XPA23 light chain P95Y (Fab, V domains shown)
# VH: B1 VH
# VL: B1 VL with S95Y
# B27: XPA23 light chain Q27I (Fab, V domains shown)
# VH: B1 VH
# VL: B1 VL with Q27I, S95P
# B28: XPA23 light chain R31L (Fab, V domains shown)
# VH: B1 VH
# VL: B1 VL with R31L, S95P
# B29: XPA23 light chain R31H (Fab, V domains shown)
# VH: B1 VH
# VL: B1 VL with R31H, S95P
# B30: XPA23 light chain R31G (Fab, V domains shown)
# VH: B1 VH
# VL: B1 VL with R31G, S95P
# B31: XPA23 light chain R31N (Fab, V domains shown)
# VH: B1 VH
# VL: B1 VL with R31N, S95P
# B32: XPA23 light chain R31Q (Fab, V domains shown)
# VH: B1 VH
# VL: B1 VL with R31Q, S95P
# Molecular target: T1, IL-1β (UniProt P01584 117-269)
# T1 construct: Antigen immobilised on the Biacore chip
# Test: Biacore, periplasmic extract
Binder,fold difference in affinity vs original [fold],binding result
B1,4.05,
B2,,no binding
B3,0.83,
B4,3.3,
B5,,no binding
B6,0.64,
B7,,no binding
B8,2.96,
B9,,no binding
B10,0.92,
B11,1.08,
B12,1.09,
B13,11.1,
B14,0.89,
B15,,no binding
B16,,no binding

Binder,fold difference in affinity vs original [fold],binding result
B17,0.44,
B18,8.48,
B19,,no binding
B20,,no binding
B21,1.18,
B22,0.68,
B23,,no binding
B24,1.47,
B25,1.07,
B26,,no binding
B27,0.82,
B28,0.51,
B29,,no binding
B30,0.92,
B31,0.38,
B32,0.27,

# — US20110118131A1 (published 2011)
